B1: human anti-V2 monoclonal antibody 697 (antibody, V domains shown)
VH: QVQLVQSGAEVKKPGSSVKVSCKASGGNFNTYTISWVRQAPGQGLEWMGRIIPIFGIVNPAQKFPGRVTINVDKSTNTAYMELSSLRSEDTAVYYCATSGVGLHFGYFDYWGQGTQVTVSS
VL: QSVLTQPPSVSGAPGQRVTISCTGSSSNIGAHYDVHWYQQLPGTAPKLLIYGNSNRPSGVPDRFSGSKSGTSASLAITGLQAEDEADYYCQSYDSSLSGYVFGTGTKVTVL

Columns and labels:
[1] = target: recombinant gp120 ZM53M (HIV-1); assay: ELISA
[2] = target: Env of pseudovirus HXB2.DG (HIV-1) (UniProt P04578)
[3] = target: Env of pseudovirus SF162.LS (HIV-1)
[4] = target: Env of pseudovirus DJ263.8 (HIV-1)
[5] = target: Env of pseudovirus MW965.26 (HIV-1)
[6] = target: Env of pseudovirus SS1196.1 (HIV-1)
[7] = target: recombinant gp120 JR-FL (HIV-1); assay: ELISA
[8] = target: recombinant gp120 MSC5007 (HIV-1); assay: ELISA
[9] = target: Env of pseudovirus 6535.3 (HIV-1)
[10] = target: Env of pseudovirus Bx08.16 (HIV-1)
[11] = target: Env of pseudovirus BaL.26 (HIV-1)
[12] = target: recombinant gp120 REJO4541 (HIV-1); assay: ELISA
[13] = target: fusion protein V1V2_(Case-A2)-gp70 (HIV-1); assay: ELISA

Molecule	O.D. (ELISA, mAb at 10 μg/ml) [1] [O.D.]	IC50 of neutralisation of pseudovirus HXB2.DG (TZM-bl cell assay) [2] [µg/mL]	IC50 of neutralisation of pseudovirus SF162.LS (TZM-bl cell assay) [3] [µg/mL]	IC50 of neutralisation of pseudovirus DJ263.8 (TZM-bl cell assay) [4] [µg/mL]	IC50 of neutralisation of pseudovirus MW965.26 (TZM-bl cell assay) [5] [µg/mL]	IC50 of neutralisation of pseudovirus SS1196.1 (TZM-bl cell assay) [6] [µg/mL]	O.D. (ELISA, mAb at 10 μg/ml) [7] [O.D.]	O.D. (ELISA, mAb at 10 μg/ml) [8] [O.D.]	IC50 of neutralisation of pseudovirus 6535.3 (TZM-bl cell assay) [9] [µg/mL]	IC50 of neutralisation of pseudovirus Bx08.16 (TZM-bl cell assay) [10] [µg/mL]	IC50 of neutralisation of pseudovirus BaL.26 (TZM-bl cell assay) [11] [µg/mL]	O.D. (ELISA, mAb at 10 μg/ml) [12] [O.D.]	percent inhibition of the binding of biotinylated 697 to V1V2-gp70 [13] [%]
human anti-V2 monoclonal antibody 1361	4	18.6	5.4	11.8	< 0.4	23.8							
human anti-V2 monoclonal antibody 1357		36.9	33.5	29.2	0.8		4						
human anti-V2 monoclonal antibody 830A		> 50	6.2		< 0.4	> 50		4	> 50	> 50	36.1		
human anti-V2 monoclonal antibody 2297												4	47
human anti-V2 monoclonal antibody 1393A		19.8	12.5	11.1	0.8	88.7	4						
human anti-V2 monoclonal antibody 2158		17.8	6.4		0.8	27.6							
human anti-V2 monoclonal antibody 697							4						
B1			19.9	38.6	1.8	16.8				11.2	20.2		

— publication PMC3572902
